{
  "source": "patent EP0999853B1",
  "target": "recombinant preparation of soluble MAC-1 (UniProt P11215)",
  "assay": "MAC-1 capture ELISA over total F(ab')2 ELISA; 5 weeks of storage, all formulations F1-F5",
  "data": [
    {"substance": "recombinant humanized anti-CD18 antibody (rhuMAb CD18)", "values": [
      {"measurement": "loss of specific activity at 40°C relative to -70°C", "result": "10 to 15", "unit": "%"}
    ]}
  ]
}
